Measured values reported in US12492252 (SHANDONG BOAN BIOTECHNOLOGY, dated 2025).
Substitutions are numbered along the chain they refer to.

T1: C-terminal fragment of the full length human GPC3 protein (human, UniProt P51654 359-554)
T1 construct: domain: C-terminal subunit (C-terminal fragment); also called C-terminal of GPC3; 30-kDa C-terminal subunit
T1 sequence (looked up): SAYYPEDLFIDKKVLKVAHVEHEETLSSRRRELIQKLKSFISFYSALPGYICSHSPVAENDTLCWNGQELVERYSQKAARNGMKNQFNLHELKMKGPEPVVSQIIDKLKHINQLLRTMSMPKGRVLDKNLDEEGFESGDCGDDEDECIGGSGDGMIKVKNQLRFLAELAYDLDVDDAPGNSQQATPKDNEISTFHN

B1: anti-human GPC3 IgG1 antibody clone 5 (antibody, V domains shown)
VH: CQSVEESGGRLVTPGTPLTLTCTVSGFSLSTYNMGWVRQAPGEGLEYIGTISSSTGNTYYATWAKGRFTISKTSSTTVDLKITNLTTEDTATYFCVRVNNMGDIWGPGTLVTVSL
VL: AIVMTQTPSSKSVAVGDTVTINCQASESVYKDNRLAWFQQKPGQPPKLLIYLASTLASGVPSRFKGSGSGTEFTLTISDVVCDDAATYYCGGYKDSLFDGFPFGGGTEVVVKR
B2: anti-human GPC3 IgG1 antibody clone 122 (antibody)
heavy: not shown
light: DPVLTQTPSSVSAAVGGTVTINCQSSQNVYNNNRLAWYQQKPGQPPKLLIYFASKLASGVPSRFKGNGSGTQFTLTISGVQCDDAATYYCAGGYNSIVDNGFGGGTEVVVERTVAAPSVFIFPPSDEQLKSGTASVVCLLNNFYPREAKVQWKVDNALQSGNSQESVTEQDSKDSTYSLSSTLTLSKADYEKHKVYACEVTHQGLSSPVTKSFNRGECTS
B3: anti-human GPC3 IgG1 antibody clone 2 (antibody, V domains shown)
VH: B1 VH with V37I
VL: B1 VL with P45A
B4: anti-human GPC3 IgG1 antibody clone 74 (antibody, V domains shown)
VH: QCQSVEESGGRLVTPGTPLTLTYTVSGFSLNNYDMSWVRQAPGKGLQYIGWINSGGTAYYASWAKGRFTISKTSSTTVDLKMTSPTTEDTATYFCARHRYGYYGDIWGPGTLVTVSL
VL: DPVLTQTPSSVSAAVGGTVTINCQSSQNVYNNNRLAWYQQKLGQPPKLLIYFASKLASGVPSRFSGSGSGTQFTLTISGVQCDDAATYYCAGGYNTIVDNGFGGGTEVVVKR
B5: anti-human GPC3 IgG1 antibody clone 17 (antibody, V domains shown)
VH: CQSVEESGGRLVTPGTPLTLTCTVSGFSLSTYDMSWVRQAPGKGLEYIGWINSGGSPYYARWAKGRFTISKTSSTTVDLKMTSPTTEDTATYFCARHRSGYYGDIWGPGTLVTVSL
VL: DPVLTQTPSSVSAAVGDTVSINCQSSQNVYKNRLAWYQQKPGQPPKLLIYGASTLASGVPSRFKGSGSGTQFTLTISDLECDDAATYYCAGGYSTIVDNTFGGGTEVVVKR
B6: anti-human GPC3 IgG1 antibody clone 49 (antibody, V domains shown)
VH: CQSVEESGGRLVTPGTPLTLTCTVSGFSLSTYWMTWVRQAPGKGLEWIGIINPSGSAYYASWAKGRFTISKTSSATVDLKMTSLTAADTATYFCAGGGGMDPWGPGTLVTVSS
VL: DPVLTQTPSSVSAAVGGTVSISCQSSQSIVKNYLSWFQQKPGQPPKRLIYKASTLPSGVPSRFKGSGSGTEFTLTISDLECDDAATYYCAASYSDNIYVFGGGTEVVVKR
B7: anti-human GPC3 IgG1 antibody clone 8 (antibody, V domains shown)
VH: B6 VH with P17A, S54G
VL: B6 VL with V30I, Q39H, K51R, K64E
B8: anti-human GPC3 IgG1 antibody clone 12 (antibody, V domains shown)
VH: B6 VH with Y58F
VL: B6 VL
B9: anti-human GPC3 IgG1 antibody clone 22 (antibody, V domains shown)
VH: B6 VH with S54T, S56R
VL: B6 VL with S20T, S22N, I29V, V30Y, K31S, Q39K, P56V, K64V, D95G
B10: anti-human GPC3 IgG1 antibody clone 40 (antibody, V domains shown)
VH: B6 VH with N52S, S54A, A86T
VL: B6 VL
notes: also called parental clone 40; chimeric anti-GPC3 clone 40
B11: anti-human GPC3 IgG1 antibody clone 41 (antibody, V domains shown)
VH: B6 VH with P17A, S54G, T72A
VL: B6 VL with V30I, Q39H, K51R, K64E, S77N
B12: anti-human GPC3 IgG1 antibody clone 121 (antibody, V domains shown)
VH: B6 VH with S54A, A87V
VL: B6 VL with S20T, S28N, V30I, N32D, A52T, D95G
B13: anti-human GPC3 IgG1 antibody clone 182 (antibody)
heavy: not shown
light: B2 light with G104A, E111K

target: T1, C-terminal fragment of the full length …; assay: ELISA

Row | Binder | binding result
1 | B1 | binds

target: T2, human GPC3 on cells (HepG2 cells expressing full length human GPC3; GPC3-transfected HEK293T cells) (human, UniProt P51654 25-554); assay: flow cytometry on HepG2 cells
T2 construct: whole, on cells; also called GPC3-expressing HepG2 tumor cells

Row | Binder | EC50 | HepG2 Cell binding (Fold ratio)
2 | B2 | 0.0053 nM | 129 fold
3 | B3 | 0.0076 nM | 694 fold
4 | B4 | 0.0042 nM | 143 fold
5 | B5 | 0.043 nM | 39.9 fold
6 | B6 | 0.012 nM | 115 fold
7 | B7 | 0.012 nM | 79.5 fold
8 | B8 | 0.014 nM | 125 fold
9 | B9 | 0.013 nM | 121 fold
10 | B10 | 0.013 nM | 104 fold
11 | B11 | 0.014 nM | 116 fold
12 | B12 | 0.0061 nM | 74.6 fold

target: T3, full length human GPC3 His (human, UniProt P51654 25-559, limits assumed); assay: SPR (Biacore T200), full length human GPC3 His immobilised, IgG1 in solution
T3 construct: also called full length human GPC3 protein; not shown: His tag

Row | Binder | Kd | RuMax | koff
13 | B2 | 0.2 nM | 17.3 | 0.0018 s⁻¹
14 | B13 | 0.02 nM | 24.3 | 0.0019 s⁻¹
15 | B3 | ~0.49 nM | 2 | 0.00039 s⁻¹
16 | B4 | 0.02 nM | 24.3 | 0.00034 s⁻¹
17 | B5 | 0.2 nM | 10.7 | 0.0037 s⁻¹
18 | B6 | 0.9 nM | 1.7 | 0.0017 s⁻¹
19 | B7 | 0.1 nM | 3.7 | 0.00042 s⁻¹
20 | B8 | 0.6 nM | 1.4 | 0.0016 s⁻¹
21 | B9 | 1.6 nM | 2.9 | 0.00052 s⁻¹
22 | B10 | 0.6 nM | 2.4 | 0.0018 s⁻¹
23 | B11 | 1.3 nM | 1.49 | 0.0032 s⁻¹
24 | B12 | 0.5 nM | 2 | 0.0015 s⁻¹

target: T4, human GPC3 protein (human, UniProt P51654 25-559); assay: screening of recombinantly expressed rabbit clones (before the change to human constant regions)
T4 construct: also called GPC3 antigen; human GPC3 proteins

Row | Binder | binding result
25 | B1 | binds
